Results reported in US20250034266A1.

What was measured:
human CCR8 (human) [1] = molecular target: human CCR8 (human) (UniProt P51685); assay: flow cytometry on TALL-1 cells (endogenous CCR8)
human CCR8 (human) [2] = molecular target: human CCR8 (human) (UniProt P51685); assay: FACS, competition with AF647-human CCL1 on CHO-K1-human CCR8 cells
human CCR8 (human) [3] = molecular target: human CCR8 (human) (UniProt P51685); assay: FACS on HuT78 cells (endogenous human CCR8)
human CCR4 (human) = molecular target: T1, human CCR4 (human) (UniProt P51679); assay: FACS on ExpiCHO-S-human CCR4 cells
T1 sequence (looked up): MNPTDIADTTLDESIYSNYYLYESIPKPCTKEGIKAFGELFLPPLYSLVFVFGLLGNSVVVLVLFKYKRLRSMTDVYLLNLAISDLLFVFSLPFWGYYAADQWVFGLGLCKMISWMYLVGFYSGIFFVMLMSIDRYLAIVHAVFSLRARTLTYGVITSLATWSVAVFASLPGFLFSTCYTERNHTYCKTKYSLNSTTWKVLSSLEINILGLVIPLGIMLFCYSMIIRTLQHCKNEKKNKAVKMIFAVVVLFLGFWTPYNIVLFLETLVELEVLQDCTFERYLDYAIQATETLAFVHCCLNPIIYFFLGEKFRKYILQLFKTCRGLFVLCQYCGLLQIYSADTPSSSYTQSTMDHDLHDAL

human CCR8 (human) [4] = molecular target: human CCR8 (human) (UniProt P51685); assay: FACS, competition with CCL1 on CHO-K1-human CCR8 cells
human CCR8 (human) [5] = molecular target: human CCR8 (human) (UniProt P51685); assay: FACS on HEK293-human CCR8 cells
[6] = molecular target: cynomolgus CCR8 (cynomolgus) (UniProt G7NYJ2); assay: FACS on HEK293-cynomolgus CCR8 cells
human CCR8 (human) [7] = molecular target: human CCR8 (human) (UniProt P51685); assay: FACS, competition with AF647-human CCL1 on CHO-K1-human CCR8 cells; remark: listed apart in the source
human CCR8 (human) [8] = molecular target: human CCR8 (human) (UniProt P51685); assay: FACS, competition with CCL1 on CHO-K1-human CCR8 cells; remark: listed apart in the source
[9] = molecular target: cynomolgus CCR8 (cynomolgus) (UniProt G7NYJ2); assay: FACS on ExpiCHO-S-cynomolgus CCR8 cells
[10] = molecular target: cynomolgus CCR8 (cynomolgus) (UniProt G7NYJ2); assay: FACS on HEK293-cynomolgus CCR8 cells; remark: listed apart in the source
human CCR8 (human) [11] = molecular target: human CCR8 (human) (UniProt P51685); assay: FACS, competition with AF647-human CCL1 on CHO-K1-human CCR8 cells; remark: listed apart in the source
[12] = molecular target: cynomolgus CCR8 (cynomolgus) (UniProt G7NYJ2); assay: FACS on HEK293-cynomolgus CCR8 cells; remark: listed apart in the source
human CCR1 (human) = molecular target: T2, human CCR1 (human) (UniProt P32246); assay: FACS on ExpiCHO-S-human CCR1 cells
T2 sequence (looked up): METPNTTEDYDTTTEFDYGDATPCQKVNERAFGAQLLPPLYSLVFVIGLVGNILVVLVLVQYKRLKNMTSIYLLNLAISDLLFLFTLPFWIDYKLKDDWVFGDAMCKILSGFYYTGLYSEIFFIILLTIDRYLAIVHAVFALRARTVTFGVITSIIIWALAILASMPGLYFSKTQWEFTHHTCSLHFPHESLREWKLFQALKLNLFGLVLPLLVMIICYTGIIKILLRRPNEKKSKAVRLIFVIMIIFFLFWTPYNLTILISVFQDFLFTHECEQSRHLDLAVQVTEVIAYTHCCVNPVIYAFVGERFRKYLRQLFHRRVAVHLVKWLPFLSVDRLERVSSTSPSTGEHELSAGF

human CCR8 (human) [13] = molecular target: human CCR8 (human) (UniProt P51685); assay: FACS on HuT78 cells (endogenous human CCR8); remark: listed apart in the source
human CCR8 (human) [14] = molecular target: human CCR8 (human) (UniProt P51685); assay: FACS on HEK293-human CCR8 cells; remark: listed apart in the source
human CCR8 (human) [15] = molecular target: human CCR8 (human) (UniProt P51685); assay: FACS on CHO-K1-human CCR8 cells
human CCR8 (human) [16] = molecular target: human CCR8 (human) (UniProt P51685); assay: FACS on HEK293-human CCR8 cells; remark: listed apart in the source
[17] = molecular target: cynomolgus CCR8 (cynomolgus) (UniProt G7NYJ2); assay: FACS on HEK293-cynomolgus CCR8 cells; remark: listed apart in the source
human CCR8 (human) [18] = molecular target: human CCR8 (human) (UniProt P51685); assay: FACS on HEK293-human CCR8 cells; remark: listed apart in the source
human CCR8 (human) [19] = molecular target: human CCR8 (human) (UniProt P51685); assay: FACS, competition with AF647-human CCL1 on CHO-K1-human CCR8 cells; remark: listed apart in the source
[20] = molecular target: cynomolgus CCR8 (cynomolgus) (UniProt G7NYJ2); assay: FACS on HEK293-Cynomolgus CCR8 cells

Chain of cynomolgus CCR8 (cynomolgus) (G7NYJ2 entry or part of it): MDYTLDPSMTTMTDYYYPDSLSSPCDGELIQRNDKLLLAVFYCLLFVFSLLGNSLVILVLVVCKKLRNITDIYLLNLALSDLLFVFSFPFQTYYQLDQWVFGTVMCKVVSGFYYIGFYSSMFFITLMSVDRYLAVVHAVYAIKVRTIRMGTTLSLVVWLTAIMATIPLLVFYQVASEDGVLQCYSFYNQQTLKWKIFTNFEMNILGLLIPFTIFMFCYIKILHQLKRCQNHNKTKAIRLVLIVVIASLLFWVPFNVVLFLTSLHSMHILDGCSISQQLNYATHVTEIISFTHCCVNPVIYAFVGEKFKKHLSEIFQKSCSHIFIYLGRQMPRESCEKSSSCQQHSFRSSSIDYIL
Chain of human CCR8 (human) (P51685 whole entry): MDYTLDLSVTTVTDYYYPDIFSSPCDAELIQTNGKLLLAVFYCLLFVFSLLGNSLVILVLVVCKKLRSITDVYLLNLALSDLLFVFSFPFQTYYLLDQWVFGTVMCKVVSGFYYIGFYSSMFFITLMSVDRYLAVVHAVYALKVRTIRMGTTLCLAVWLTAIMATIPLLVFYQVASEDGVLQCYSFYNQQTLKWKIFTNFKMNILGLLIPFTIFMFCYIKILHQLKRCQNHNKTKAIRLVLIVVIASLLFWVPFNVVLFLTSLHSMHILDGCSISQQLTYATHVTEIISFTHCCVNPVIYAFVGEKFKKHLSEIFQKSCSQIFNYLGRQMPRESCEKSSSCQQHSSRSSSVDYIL

Row | Max Inhibition (%) (human CCR8 (human) [2]) | Max MFI (human CCR4 (human)) | Max MFI (human CCR8 (human) [5]) | Max MFI [6] | Max Inhibition (%) (human CCR8 (human) [7]) | Max MFI [9] | Max MFI [10] | Max Inhibition (%) (human CCR8 (human) [11]) | Max MFI (human CCR1 (human)) | Max MFI (human CCR8 (human) [14]) | Max MFI (human CCR8 (human) [16]) | Max MFI [17] | Max MFI (human CCR8 (human) [18]) | Substance | further results
1 |  |  |  |  |  |  |  |  |  |  |  |  |  | HuIgG1-G1m Isotype (antibody) | Maximum MFI (human CCR8 (human) [1]): 5.96 MFI
2 | -13% | 7 MFI | 180 MFI | 120 MFI | 27.4% | 13 MFI | 14300 MFI | -4.1% | 20.3 MFI | 222 MFI | 167 MFI | 331 MFI |  | Human IgG1 (antibody) | Max MFI (human CCR8 (human) [3]): 7820 MFI; Max Inhibition (%) (human CCR8 (human) [4]): -4.58%; Max Inhibition (%) (human CCR8 (human) [8]): 17.8%; Max MFI [12]: 5690 MFI; Max MFI (human CCR8 (human) [13]): 16900 MFI; Max MFI (human CCR8 (human) [15]): 3860 MFI
3 | -13.9% | 6.6 MFI | 18 MFI | 158 MFI | 28.7% | 5 MFI | 47 MFI | 2.1% | 267 MFI | 261 MFI | 49 MFI | 40 MFI | 11 MFI | Mouse IgG2a (antibody) | Max Inhibition (%) (human CCR8 (human) [19]): 12.3%
4 |  |  |  |  |  |  |  |  |  |  |  |  | 349 MFI | Mouse IgG2a isotype control (antibody) | Max MFI [20]: 396 MFI
